Data: patent US20210308211A1, “METHOD OF TREATING VIRAL INFECTIONS” (priority 2020, published 2021)
Non-standard residues stand in square brackets, D forms with d. Residues, ends and D or L forms follow the SMILES beside them. No end group written: not given here. Met(O) = CS(=O)CC[C@H](N)C(=O)O; pS = N[C@@H](COP(=O)(O)O)C(=O)O

Key:
[1] = tested on: MRL/lpr mice; experiment: Cellularity analysis of peripheral blood in MRL/lpr mice; format: in vivo, mouse; settings: 100 μg/100 μL single injection, 5 days after
Protocol: MRL/lpr mice were injected with 100 μg/100 μL of P140 or P140(MO) and cellularity (preipheral blood) was studied 5 days after this unique injection. The count includes all the leucocytes. In view of the low number of tested mice, a non parametric statistical test has been realised Mann-Whitney).

[2] = target: T1, HSC70 protein (Bos taurus, UniProt P19120); experiment: BIAcore binding of peptides to immobilized HSC70; parameters: species or system bovine
T1 construct: purchased Stressgen
Protocol: BIAcore 3000 system (Biacore AB) was used to evaluate the binding of P140 peptides to HSC70 protein (Page et al., 2009, and 2011). Sensor chip CM5, surfactant P20, amine coupling kit containing N-hydroxysuccinimide (NHS) and N-ethyl-N′-dimethylaminopropyl carbodiimide (EDC), 2-(2-pyridinyldithio)ethaneamine (PDEA) and ethanolamine were from Biacore AB. Biosensor assays were performed with HBS-EP buffer as running buffer (10 mM HEPES, 150 mM NaCl, 3 mM EDTA, 0.005% surfactant P20, pH 7.4). The compounds were diluted in the running buffer. The sensor chip surface was regenerated after each experiment by injecting 10 μL of 10 mM HCl. Recombinant bovine HSC70 (Stressgen) was immobilized on flow cells of a CM5 sensor chip through its thiol groups using 35 μL PDEA in 50 mM borate buffer, pH 8.3 on the NHS/EDC-activated matrix. Then, 35 μL of HSC70 (100 μg/mL in formate buffer, pH 4.3) were injected until a response of 13,000 response units (RU) corresponding to 13 ng/mm^2 of HSC70 was immobilized. Twenty μL of a 50 mM cysteine/1 M NaCl solution was used to saturate unoccupied sites on the chip. The direct binding measurement of P140 peptides to HSC70 was carried out at 25° C. with a constant flow rate of 20 μL/min. P140 peptide and analogues were injected in the flux at different concentrations for 3 min, followed by a dissociation phase of 3 min. The kinetic parameters were calculated using the BIAeval 3.1 software on a personal computer. Analysis was performed using the simple 1:1 Langmuir binding model. The specific binding profiles were obtained after subtracting the response signal from the control empty channel and from blank-buffer injection. The fitting to each model was judged by the χ^2 value and randomness of residue distribution compared to the theoretical model.

[3] = tested on: MRL/lpr mice; experiment: Proteinuria analysis in MRL/lpr mice (Albustix); format: in vivo, mouse; settings: compared to the untreated mice
Protocol: Proteinuria of the above mice was measured in fresh urine using Albustix (Bayer Diagnostics) and was semi-quantitatively estimated according to a […] recommended by the manufacturer (no proteinuria=0; traces=1; 1+=2; 2+=3; 3+=4; 4+=5).

[4] = tested on: MRL/lpr mice; experiment: Survival analysis in MRL/lpr lupus mice; format: in vivo, mouse; settings: female MRL/lpr mice, intravenous, 20 mice per group; NaCl control 25 weeks
Protocol: It has been determined that this mouse strain carries a mutation in the fas gene. Also, the MRL/lpr is a useful model to study behavioural and cognitive deficits found in autoimmune diseases and the efficacy of immunosuppressive agents [Monneaux et al., 2003, Eur. J. Immunol. 33, 287-296].
Five-week-old female MRL/lpr mice received P140 or peptide P140(MO) intravenously as described (Monneaux et al., 2003, Eur. J. Immunol. 33, 287-296). All experimental protocols were carried out with the approval of the local Institutional Animal Care and Use Committee (CREMEAS). As control, mice were injected with NaCl.
Twenty mice were used for each peptide or NaCl.
Statistical tests were performed using GraphPad Prism version 5.0. The two-way ANOVA test was used to analyze statistical significance of proteinuria differences between control and peptide-treated groups of mice. Survival of control and P140 analogue-treated female MRL/lpr mice was analyzed by the Kaplan-Meier method, and the significance of differences was determined by the log-rank test. For the other variables, statistical significance was assessed using the Student's t-test. p values less than 0.05 were considered significant.

[5] = target: Recombinant bovine HSC70 (Stressgen) (bovine) (UniProt P19120); experiment: SPR, BIAcore 3000; HSC70 immobilised, peptide injected; 1:1 Langmuir fit; row for analyte at 3.12 µM
[6] = target: Recombinant bovine HSC70 (Stressgen) (bovine) (UniProt P19120); experiment: SPR, BIAcore 3000; HSC70 immobilised, peptide injected at 12.5 µM; 1:1 Langmuir fit
[7] = target: Recombinant bovine HSC70 (Stressgen) (bovine) (UniProt P19120); experiment: SPR, BIAcore 3000; HSC70 immobilised, peptide injected at 25 µM; 1:1 Langmuir fit
[8] = target: Recombinant bovine HSC70 (Stressgen) (bovine) (UniProt P19120); experiment: SPR, BIAcore 3000; HSC70 immobilised, peptide injected; 1:1 Langmuir fit; row for analyte at 25 µM
[9] = target: Recombinant bovine HSC70 (Stressgen) (bovine) (UniProt P19120); experiment: SPR, BIAcore 3000; HSC70 immobilised, peptide injected; 1:1 Langmuir fit; row for analyte at 12.5 µM
[10] = target: Recombinant bovine HSC70 (Stressgen) (bovine) (UniProt P19120); experiment: SPR, BIAcore 3000; HSC70 immobilised, peptide injected; 1:1 Langmuir fit; row for analyte at 6.25 µM
[11] = target: Recombinant bovine HSC70 (Stressgen) (bovine) (UniProt P19120); experiment: SPR, BIAcore 3000; HSC70 immobilised, peptide injected at 3.12 µM; 1:1 Langmuir fit
[12] = target: Recombinant bovine HSC70 (Stressgen) (bovine) (UniProt P19120); experiment: SPR, BIAcore 3000; HSC70 immobilised, peptide injected; 1:1 Langmuir fit; row for analyte at 1.56 µM
[13] = target: Recombinant bovine HSC70 (Stressgen) (bovine) (UniProt P19120); experiment: SPR, BIAcore 3000; HSC70 immobilised, peptide injected at 1.56 µM; 1:1 Langmuir fit
[14] = target: Recombinant bovine HSC70 (Stressgen) (bovine) (UniProt P19120); experiment: SPR, BIAcore 3000; HSC70 immobilised, peptide injected at 6.25 µM; 1:1 Langmuir fit

T1 sequence (P19120 whole entry): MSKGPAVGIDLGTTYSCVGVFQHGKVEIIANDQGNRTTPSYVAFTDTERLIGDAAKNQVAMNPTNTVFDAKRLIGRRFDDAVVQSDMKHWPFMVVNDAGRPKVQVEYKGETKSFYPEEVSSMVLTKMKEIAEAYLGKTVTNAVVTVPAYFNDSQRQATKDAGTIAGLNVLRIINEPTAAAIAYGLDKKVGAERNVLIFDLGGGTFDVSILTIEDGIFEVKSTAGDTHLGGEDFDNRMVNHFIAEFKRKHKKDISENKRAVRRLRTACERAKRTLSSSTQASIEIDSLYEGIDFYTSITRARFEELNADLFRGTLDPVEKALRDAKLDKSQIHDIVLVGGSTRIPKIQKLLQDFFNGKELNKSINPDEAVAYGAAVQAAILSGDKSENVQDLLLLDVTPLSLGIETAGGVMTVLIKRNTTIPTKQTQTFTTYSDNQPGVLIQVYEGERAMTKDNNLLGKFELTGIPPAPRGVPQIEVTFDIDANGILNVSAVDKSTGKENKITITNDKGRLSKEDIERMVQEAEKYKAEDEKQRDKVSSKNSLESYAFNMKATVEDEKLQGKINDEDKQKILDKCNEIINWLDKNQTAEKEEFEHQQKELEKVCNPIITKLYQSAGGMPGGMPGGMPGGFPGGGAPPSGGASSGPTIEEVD
Sequence of Recombinant bovine HSC70 (Stressgen) (bovine) (P19120 whole entry): as above

Ka [5]	Kd [5]	koff [5]	Req [6]	kobs [6]	Req [7]	kobs [7]	Ka [8]	Kd [8]	koff [8]	Ka [9]	Kd [9]	koff [9]	Ka [10]	Kd [10]	koff [10]	Req [11]	kobs [11]	Ka [12]	Kd [12]	Molecule	further results
–	–	–	–	–	–	–	–	–	–	–	–	–	–	–	–	–	–	–	–	CC[C@H](C)[C@H](NC(=O)[C@H](Cc1ccccc1)NC(=O)[C@H](C)NC(=O)[C@H](Cc1ccc(O)cc1)NC(=O)CNC(=O)[C@H](CCCNC(=N)N)NC(=O)[C@@H]1CCCN1C(=O)[C@H](CCCCN)NC(=O)CNC(=O)[C@H](COP(=O)(O)O)NC(=O)[C@H](CCCNC(=N)N)NC(=O)[C@H](CCCCN)NC(=O)[C@H](CO)NC(=O)[C@H](Cc1ccc(O)cc1)NC(=O)[C@@H](NC(=O)[C@H](CC[S+](C)[O-])NC(=O)[C@H](Cc1c[nH]cn1)NC(=O)[C@@H](NC(=O)[C@@H](N)CCCNC(=N)N)[C@@H](C)CC)C(C)C)C(=O)N[C@@H](CCC(=O)O)C(=O)N[C@@H](Cc1ccc(O)cc1)C(=O)O (stereo partly drawn) [P140(MO), RIHM(O)VYSKRS(PO3H2)GKPRGYAFIEY] (H-RIH[Met(O)]VYSKR[pS]GKPRGYAFIEY-OH)	Peripheral hypercellularity [1]: decrease peripheral hypercellularity; Rmax (RU) ([2]; 25° C., 1:1 Langmuir model): 39 RU; kon ([2]; 25° C., 1:1 Langmuir model, analyte 1.56-25 μM, read-out: ka): 1150 M⁻¹ s⁻¹; Affinity for HSC70, oxidized vs non-oxidized peptide (in words) ([2]; P140 compared with P140 M(O)): not statistically different; Req (RU) ([2]; peptide 1.56 μM): 17.6 RU; Req (RU) ([2]; peptide 3.12 μM): 24.2 RU; Req (RU) ([2]; peptide 6.25 μM): 29.9 RU; Req (RU) ([2]; peptide 12.5 μM): 33.9 RU; kobs ([2]; peptide 12.5 μM): 0.0166 s⁻¹; Req (RU) ([2]; peptide 25 μM): 36.3 RU; kobs ([2]; peptide 25 μM): 0.031 s⁻¹; Proteinuria [3]: less important and appears lately; Median survival [4]: > 40 weeks
524000 M⁻¹	1.91 µM	0.0022 s⁻¹	33.9 RU	0.0166 s⁻¹	36.3 RU	0.031 s⁻¹	524000 M⁻¹	1.91 µM	0.0022 s⁻¹	524000 M⁻¹	1.91 µM	0.0022 s⁻¹	524000 M⁻¹	1.91 µM	0.0022 s⁻¹	24.2 RU	0.0058 s⁻¹	524000 M⁻¹	1.91 µM	RIH[Met(O)]VYSKR[pS]GKPRGYAFIEY	koff [12]: 0.0022 s⁻¹; Req [13]: 17.6 RU; kobs [13]: 0.004 s⁻¹; Req [14]: 29.9 RU; kobs [14]: 0.0094 s⁻¹
144000 M⁻¹	6.94 µM	0.00312 s⁻¹	53.6 RU	0.00874 s⁻¹	65.2 RU	0.0144 s⁻¹	144000 M⁻¹	6.94 µM	0.00312 s⁻¹	144000 M⁻¹	6.94 µM	0.00312 s⁻¹	144000 M⁻¹	6.94 µM	0.00312 s⁻¹	25.8 RU	0.00452 s⁻¹	144000 M⁻¹	6.94 µM	RIHMVYSKR[pS]GKPRGYAFIEY [P140 peptide (SEQ ID NO: 1 in which serine at position 10 is phosphorylated; SEQ ID NO: 4)]	koff [12]: 0.00312 s⁻¹; Req [13]: 15.3 RU; kobs [13]: 0.00382 s⁻¹; Req [14]: 39.5 RU; kobs [14]: 0.00593 s⁻¹
